Blank lines part the entries; values can stand above or below the binder they belong to.
Assays:
[1] = target: CD137 and PD1 individually fused to subunits of NanoLuc luciferase, on the same cell (NanoBiT assay cells); assay: NanoBiT cell based protein interaction assay, luminescence on bridging of CD137 and PD1 on one cell
[2] = target: cynomolgus CD137 and cynomolgus PD-1 on activated CD137+ cynomolgus T cells (cynomolgus) (UniProt A9YYE7); assay: flow cytometry, labelled VH on activated CD137+ cynomolgus T cells, n = 3
[3] = target: human CD137 and human PD-1 on stimulated primary human T cells (human); assay: flow cytometry, labelled VH on activated CD137+ human T cells (human control), n = 1
[4] = target: human CD137 and human PD-1 on stimulated primary human T cells (human); assay: flow cytometry, AF488-labelled VH on pre-stimulated human CD8+ cells, average of 2 donors

EC50 [1]: 105 pM
B1: TPP-1438 CD137A-6GS-HSA2-6GS-PD138G7(G109D)-6GS-PD138G7(G109D) (bispecific antibody)
chain: EVQLVESGGGLVQPGGSLRLSCAASGFTLSNYWMNWVRQAPGKGLEWVANINQDGSERYYVDSVKGRFTISRDNAKNSLYLQMNSLRAEDTAVYYCARGGEGYGVDHYGLDVSGQGTTVTVSSGGGGSGGGGSGGGGSGGGGSGGGGSGGGGSEVQLVESGGGLVKPGGSLRLSCAASGFTFSNYNMNWVRQAPGKGLEWVSSISSAGTHIYYADSVKGRFTISRDNAKNSLYLQMNSLRAEDTAVYYCARDPHSTGWYKDFDYWGQGTLVTVSSGGGGSGGGGSGGGGSGGGGSGGGGSGGGGSEVQLVESGGGVVRPGGSLRLSCAASGFTFDDYAMSWVRQAPGKGLEWVSGITWNGGSTGYADSVKDRFTISRDNAKNSLYLQMNSLRAEDTALYYCVRDKYSYAWSYDDFDIWGQGTMVTVSSGGGGSGGGGSGGGGSGGGGSGGGGSGGGGSEVQLVESGGGVVRPGGSLRLSCAASGFTFDDYAMSWVRQAPGKGLEWVSGITWNGGSTGYADSVKDRFTISRDNAKNSLYLQMNSLRAEDTALYYCVRDKYSYAWSYDDFDIWGQGTMVTVSS

EC50 [2]: 7170 pM
EC50 [3]: 6870 pM
EC50 [4]: 1490 pM
EC50 [1]: 51.5 pM
B2: TPP-1290 PD138G7(G109D)-6GS-CD137A-6GS-HSA2 (bispecific antibody)
chain: EVQLVESGGGVVRPGGSLRLSCAASGFTFDDYAMSWVRQAPGKGLEWVSGITWNGGSTGYADSVKDRFTISRDNAKNSLYLQMNSLRAEDTALYYCVRDKYSYAWSYDDFDIWGQGTMVTVSSGGGGSGGGGSGGGGSGGGGSGGGGSGGGGSEVQLVESGGGLVQPGGSLRLSCAASGFTLSNYWMNWVRQAPGKGLEWVANINQDGSERYYVDSVKGRFTISRDNAKNSLYLQMNSLRAEDTAVYYCARGGEGYGVDHYGLDVSGQGTTVTVSSGGGGSGGGGSGGGGSGGGGSGGGGSGGGGSEVQLVESGGGLVKPGGSLRLSCAASGFTFSNYNMNWVRQAPGKGLEWVSSISSAGTHIYYADSVKGRFTISRDNAKNSLYLQMNSLRAEDTAVYYCARDPHSTGWYKDFDYWGQGTLVTVSS

EC50 [1]: 148 pM
B3: TPP-1439 PD138G7(G109D)-6GS-PD138G7(G109D)-6GS-CD137A-7-6GS-HSA2 (bispecific antibody)
chain: EVQLVESGGGVVRPGGSLRLSCAASGFTFDDYAMSWVRQAPGKGLEWVSGITWNGGSTGYADSVKDRFTISRDNAKNSLYLQMNSLRAEDTALYYCVRDKYSYAWSYDDFDIWGQGTMVTVSSGGGGSGGGGSGGGGSGGGGSGGGGSGGGGSEVQLVESGGGVVRPGGSLRLSCAASGFTFDDYAMSWVRQAPGKGLEWVSGITWNGGSTGYADSVKDRFTISRDNAKNSLYLQMNSLRAEDTALYYCVRDKYSYAWSYDDFDIWGQGTMVTVSSGGGGSGGGGSGGGGSGGGGSGGGGSGGGGSEVQLVESGGGLVQPGGSLRLSCAASGFTLSNYWMNWVRQAPGKGLEWVANINQDGSERYYVDSVKGRFTISRDNAKNSLYLQMNSLRAEDTAVYYCARGGEGYGVDHYGLDVSGQGTTVTVSSGGGGSGGGGSGGGGSGGGGSGGGGSGGGGSEVQLVESGGGLVKPGGSLRLSCAASGFTFSNYNMNWVRQAPGKGLEWVSSISSAGTHIYYADSVKGRFTISRDNAKNSLYLQMNSLRAEDTAVYYCARDPHSTGWYKDFDYWGQGTLVTVSS

EC50 [1]: 53.2 pM
B4: TPP-1410 PD138G7(G109D)-1GS-CD137A-6GS-HSA2 (bispecific antibody)
chain: EVQLVESGGGVVRPGGSLRLSCAASGFTFDDYAMSWVRQAPGKGLEWVSGITWNGGSTGYADSVKDRFTISRDNAKNSLYLQMNSLRAEDTALYYCVRDKYSYAWSYDDFDIWGQGTMVTVSSGGGGSEVQLVESGGGLVQPGGSLRLSCAASGFTLSNYWMNWVRQAPGKGLEWVANINQDGSERYYVDSVKGRFTISRDNAKNSLYLQMNSLRAEDTAVYYCARGGEGYGVDHYGLDVSGQGTTVTVSSGGGGSGGGGSGGGGSGGGGSGGGGSGGGGSEVQLVESGGGLVKPGGSLRLSCAASGFTFSNYNMNWVRQAPGKGLEWVSSISSAGTHIYYADSVKGRFTISRDNAKNSLYLQMNSLRAEDTAVYYCARDPHSTGWYKDFDYWGQGTLVTVSS

EC50 [1]: 25.9 pM
B5: TPP-1409 CD137A-1GS-HSA2-1GS-PD138G7(G109D) (bispecific antibody)
chain: EVQLVESGGGLVQPGGSLRLSCAASGFTLSNYWMNWVRQAPGKGLEWVANINQDGSERYYVDSVKGRFTISRDNAKNSLYLQMNSLRAEDTAVYYCARGGEGYGVDHYGLDVSGQGTTVTVSSGGGGSEVQLVESGGGLVKPGGSLRLSCAASGFTFSNYNMNWVRQAPGKGLEWVSSISSAGTHIYYADSVKGRFTISRDNAKNSLYLQMNSLRAEDTAVYYCARDPHSTGWYKDFDYWGQGTLVTVSSGGGGSEVQLVESGGGVVRPGGSLRLSCAASGFTFDDYAMSWVRQAPGKGLEWVSGITWNGGSTGYADSVKDRFTISRDNAKNSLYLQMNSLRAEDTALYYCVRDKYSYAWSYDDFDIWGQGTMVTVSS

EC50 [2]: 3630 pM
EC50 [3]: 3750 pM
EC50 [4]: 2220 pM
EC50 [1]: 25.1 pM
B6: TPP-1246 CD137A-6GS-HSA2-6GS-PD138G7(G109D) (bispecific antibody)
chain: EVQLVESGGGLVQPGGSLRLSCAASGFTLSNYWMNWVRQAPGKGLEWVANINQDGSERYYVDSVKGRFTISRDNAKNSLYLQMNSLRAEDTAVYYCARGGEGYGVDHYGLDVSGQGTTVTVSSGGGGSGGGGSGGGGSGGGGSGGGGSGGGGSEVQLVESGGGLVKPGGSLRLSCAASGFTFSNYNMNWVRQAPGKGLEWVSSISSAGTHIYYADSVKGRFTISRDNAKNSLYLQMNSLRAEDTAVYYCARDPHSTGWYKDFDYWGQGTLVTVSSGGGGSGGGGSGGGGSGGGGSGGGGSGGGGSEVQLVESGGGVVRPGGSLRLSCAASGFTFDDYAMSWVRQAPGKGLEWVSGITWNGGSTGYADSVKDRFTISRDNAKNSLYLQMNSLRAEDTALYYCVRDKYSYAWSYDDFDIWGQGTMVTVSS

From patent US20220220215A1
